“Also recorded” adds a separate entry of the source.
System: Uke-1 cells
Assay: ADCC activity in vitro (Calcein release, NK3.3 effector cells)
Assay type: cell-based
Conditions: unconjugated IgG1, effector to target ratio 20 to 1
Method: The ability of the unconjugated anti-cKIT antibodies (NEG085, 20376) to mediate antibody dependent cellular cytotoxicity was determined versus Uke-1 cells (target cells; generously provided by Professor Walter Fiedler, University Hospital Eppendorf, Hamburg, Germany) in co-incubation with NK3.3 cells (killer cells or effector cells; kindly provided by Jacky Kornbluth from Saint Louis University). […] In order to calculate the antibody specific lysis of the target cells, a parallel incubation of target cells only without antibody or effector cells served as a baseline and negative control, whereas the positive control or maximal lysis or hundred percent specific lysis was determined by lysis of target cells only with a 1% Triton-X 100 solution. […] Following a co-incubation of target and effector cells, the microtiterplate was centrifuged and an aliquot of the supernatant fluid was transferred to another microtiterplate (96 well, flat-bottomed, black with clear bottom; (Corning Costar, catalog #3904, Tewksbury, MA) and the concentration of free Calcein in solution was determined with a fluorescence counter (Victor 3 ® multilabel counter, Perkin Elmer, Waltham, MA).

B1: NEG085: anti-cKIT antibody of Table 3, VH SEQ ID NO 82, VL SEQ ID NO 91 (antibody, listed as Homo sapiens, V domains shown)
VH: EVQLVESGGGLVQPGGSLRLSCAASGFAFSGYYMAWVRQAPGKGLEWVANINYPGSSTYYLDSVKGRFTISRDNAKNSLYLQMNSLRAEDTAVYYCARGDYYGTTYWYFDVWGQGTTVTVSS
VL: DIQMTQSPSSLSASVGDRVTITCRASQSISSYLNWYQQKPGKAPKLLIYYTSRLQSGVPSRFSGSGSGTDFTLTISSLQPEDFATYYCQQGRRLWSFGGGTKVEIK
- ADCC killing of target cells: do not induce ADCC; also recorded: not able to induce ADCC

— patent publication US11833215B2, “CKIT antibody drug conjugates” (Novartis AG, priority 2014, dated 2023)
